System: MS2 coat protein
Assay: apparent KD of MS2 coat protein; designed switch direction (-1 OFF switch, 1 ON switch): -1; higher = weaker reporter binding
Method in brief: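 Three titration conditions were used: no input, 200 uM small-molecule ligand, and an oligonucleotide input. In each, SNAP-549-labelled MS2 coat protein was raised from 0.7 or 1.5 nM, doubling, to 3 µM over designed RNA switches transcribed on Illumina chips by stalled E. coli RNA polymerase. Curve fits of normalised cluster fluorescence gave values whose per-design median over clusters is the apparent KD.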

[1] = Eterna round: R95, input ligand: FMN 200 uM
[2] = Eterna round: R95, input ligand: microRNA oligo, concentration not stated
[3] = Eterna round: R95, input ligand: none
[4] = input ligand: microRNA oligo, concentration not stated

Row | Sequence | apparent KD of MS2 coat protein [1] [nM] | apparent KD of MS2 coat protein [2] [nM] | apparent KD of MS2 coat protein [3] [nM] | apparent KD of MS2 coat protein (input ligand: FMN 200 uM) [nM] | apparent KD of MS2 coat protein [4] [nM] | apparent KD of MS2 coat protein (input ligand: none) [nM]
1 | UUUAACAAGCCAGAUCCUAACAUGAGGAUCACCCAUGUGCUCGUCUGAUUUUGUACUAUCAUGUGAGUGAUAGUAUU [Level Boss var2-04] (puzzle: Sensor v3, turn-off variant 1) | 174 | 683 | 308 |  |  | 
2 | UUCCUCGUUGUGAGGAUAUCGUCCGGGUUUUGUUACGAGAAGGCACAUGAGGAUCACCCAUGUUACUUGAUGUU [JR_BMOE4_Sub072] (puzzle: Brourd's mod of Exclusion 4) |  | 20 |  |  |  | 
3 | UCUCGCGGGCAAGGAUAUCCCACACUGUUCUGGCCCGUGUCUGUUACAUGAGGAUCACCCAUGUGGGAGAAGGUGCACCAGGGC [Design 44] (Eterna round: R96, puzzle: Exclusion NG 2) |  |  |  | 78.8 | 31.6 | 35.9
4 | AGUAACUAUCACGAAAGUGAUAGUUACACAAGCAGUGAUACAUGAGGAUCACCCAUGUCCUCAUUUGCUCGUCUUAU [Sensor 3 - 28] (Eterna round: R96, puzzle: Sensor v3, turn-off variant 2) |  |  |  | 87.4 | 472 | 91.9
5 | ACAUGAGGAUCACCCAUGUCCGUCUGGUCUGUCUCGGCUGUCGAGGAUAUAGCUCGGUAUCCGCGCUAGAAGGCGGGAGUCGGG [Aenatbe mod 95] (Eterna round: R96, puzzle: Exclusion NG 3) |  |  |  | 36.1 | 60.9 | 61.9
6 | CACCUGAAAGCAGGAUAUCUUACAUGAGGAUCACCCAUGUAAUAAAUGAGAAUUUCGAAUGUAAUAGAGAAGGGCUGAAAAGGC [Ostracism 86 - Jieux - Exclusion NG 2] (Eterna round: R96, puzzle: Exclusion NG 2) |  |  |  | 47 | 37.7 | 40.3
7 | GGCAAUAUGUAGGAUAUCGUAUCGGAAACGAUACGAGAAGGGCAAACAUGAGGAUCACCCAUGUUCCUUAAGCC [Fiskers Ex 6 - 10] (puzzle: Exclusion 6) |  | 13.5 |  |  |  | 
8 | GUGUGCAGAGGAUAUACAGAGGAAAAGAAAAGAUAAGUGAUACAUGAGGAUCACCCAUGUAGAAGGCUGAGUGU [Excluse me!! 21 - Jieux - Exclusion 2] (puzzle: Exclusion 2) | 32.8 | 21.1 | 22.7 |  |  | 
9 | CAAACCAGAGGAUAUGCGCAUAGAUCAGACUUUGUUUCUUAACAUGAGGAUCACCCAUGUAGAAGGCUGUAAAC [Ex2 #74] (Eterna round: R97, puzzle: Exclusion 2) |  |  |  | 12.3 |  | 13.3
10 | AGUAGAUCUACGCUUGCGUGGAUCUGCAAAGCAGGUGUUACAUGAGGAUCACCCAUGUCCUCAUUUGCUCGUCUUAG [JL turnoff v2 99.08] (puzzle: Sensor v3, turn-off variant 2) | 71.8 | 563 | 65.1 |  |  | 
11 | CCUUCAGUAGUUAGGAUAUUUGGCGUCGAGGCGCAAGAGAAGGGACAUGAGGAUCACCCAUGUGAGUAUGGUAG [Eternabot (L1) Solution 35] (Eterna round: R97, puzzle: Brourd's mod of Exclusion 4) |  |  |  | 61.9 |  | 63.1
12 | GUGUGCAGAGGAUAUACAGAGGAAGAGAAGAGAAGAGAAGGACAUGAGGAUCACCCAUGUAGAAGGCUGAGUGU [Excluse me!! 19 - Jieux - Exclusion 2] (puzzle: Exclusion 2) | 33.7 | 30.2 | 31.6 |  |  | 
13 | CCGGAAAUGAAGGAUAUAGGUGUCGAUAGACUCCUAGAAGGUCAUACAUGAGGAUCACCCAUGUGUCCUACCGG [Fiskers Ex 6 - 76] (Eterna round: R96, puzzle: Exclusion 6) |  |  |  | 36.7 | 13.3 | 18
14 | GGCAUAAACGAGGAUAUCGUUACGGAAACGUAACGAGAAGGUGUAACAUGAGGAUCACCCAUGUUCCUCAAGCC [Mat - Exclusion 6 - Eli Mod - D59] (puzzle: Exclusion 6) |  | 28.9 |  |  |  | 
15 | AUAAAUAGCGAGGAUAUCGUAUCGGAAACGAUACGAGAAGGCGUAACAUGAGGAUCACCCAUGUGUCCUCAAUA [Mat - Exclusion 6 - Eli Mod - D6] (Eterna round: R97, puzzle: Exclusion 6) |  |  |  | 801 |  | 87.2
16 | GUCAGACGAGGAUAUGAUUAAUAAUACAUGAGGAUCACCCAUGUAAUACUGAUCUAUGGAUCAGAAGGCGUCUGAC [E5/6-A4] (Eterna round: R97, puzzle: Exclusion 5) |  |  |  | 15 |  | 16.1
17 | AGUUGGUCAGGAUAUUCUAUUAAUUACAUGAGGAUCACCCAUGUGAAUGGACAAGGGUGUGAAGAAGGGACUGGCG [Omei Ex5 A17c] (Eterna round: R97, puzzle: Exclusion 5) |  |  |  | 692 |  | 1780
18 | CUGGUGUGAGGAUAUCAGGACACAUCCGCGGGCGUGUCAAAUGAGAAGGCACAUGAGGAUCACCCAUGUGGGAC [Onquveatge] (puzzle: Exclusion 4) | 57.1 | 44.2 | 53.2 |  |  | 

Row | Sequence | apparent KD of MS2 coat protein [1] [nM] | apparent KD of MS2 coat protein [2] [nM] | apparent KD of MS2 coat protein [3] [nM] | apparent KD of MS2 coat protein (input ligand: FMN 200 uM) [nM] | apparent KD of MS2 coat protein [4] [nM] | apparent KD of MS2 coat protein (input ligand: none) [nM]
19 | ACAAGCUAUCUCUUAUCUUACAUGAGGAUCACCCAUGUUUUUUCAAUUUUGUUUGGUCUCCUUUGUGCUCGUCUUAU [JR_STOV1_Sub053] (Eterna round: R97, puzzle: Sensor, turn-off variant 1) |  |  |  | 53.2 |  | 55.2
20 | CAUACUCAAGUCAGGAUAUAGAGUCGGAUACGGGUCUAGAAGGGACAUGAGGAUCACCCAUGUAGAGAGUAAAG [EX-4 Malc #24] (puzzle: Brourd's mod of Exclusion 4) | 62.7 | 30.9 | 30.8 |  |  | 
21 | AUUUAAUUUAAUAAGAUCACAUGAGGAUCACCCAUGUAUAUAUAGGAUAUCAGCUCGAUUAGAGCUGAGAAGGAUAUAUACAUG [ExNG3/8-A1] (Eterna round: R96, puzzle: Exclusion NG 3) |  |  |  | 48.9 | 21.6 | 38.1
22 | CACAAGCUUUUUUGAUGCAUUUUAGUUGGUGUGCUUUUUACAUGAGGAUCACCCAUGUUUAUGAAGCUCGAUCUUUU [JR_SV3TOV2_Sub080] (puzzle: Sensor v3, turn-off variant 2) | 14 | 15 | 12.8 |  |  | 
23 | AUCAUGUAAGGAUAUGAAAGUAAACGCGUGAAGACCACGCAUCAGAAGGUACAUGAGGAUCACCCAUGUGUCCG [Soesatle] (Eterna round: R97, puzzle: Exclusion 4) |  |  |  | 60.6 |  | 19.8
24 | UUUUUGUCAGGAUAUGCGUAGUAGAACAAUAGUACUACUACGUAGAAGGGACAUGAGGAUCACCCAUGUUCCUC [Fiskers Ex 4 Super stable 44 mod 17] (puzzle: Exclusion 4) |  | 13.9 |  |  |  | 
25 | AAGUACCGUCACGAUAGUGAUGGUACAACAAGCAUGUAAACAUGAGGAUCACCCAUGUCCUCGAUUGCUCGUCUUAU [Sensor 3 - 67] (puzzle: Sensor v3, turn-off variant 2) | 527 | 601 | 537 |  |  | 
26 | UCGUGUUUAGAGGAUAUAUUAAUAUUUUAAACAAUAGAAGGCUAAACAUGAGGAUCACCCAUGUAUUUGGUUUU [JR_Ex6_Sub055] (Eterna round: R97, puzzle: Exclusion 6) |  |  |  | 46.6 |  | 233
27 | ACGGCAUAAGGAUAUGCAAGGUGCUGACUUCCUCCGUCAUUACAUGAGGAUCACCCAUGUAGAAGGUAUGUACC [Eternabot (Original) Solution 9] (Eterna round: R97, puzzle: Exclusion 2) |  |  |  | 18.4 |  | 18.5
28 | UUUAGUUCAGGAUAUGUAGAUUUUAACAUGAGGAUCACCCAUGUAGAUCCUGAAUUAACUACAGAAGGGAACAUUU [Exclusion 5: 2:a] (puzzle: Exclusion 5) |  | 24.9 |  |  |  | 
29 | AACUCUAAGCAGGAUAUCUAGCAAACGUCCGCAAGAGAAGGGCUUACAUGAGGAUCACCCAUGUAAGGAUGAUC [Reorzainar] (puzzle: Exclusion 6) | 48.8 | 26 | 24.9 |  |  | 
30 | GGACCUCCUGAGGAUAUUGUAUCACCUGACUGAUAAGAAGGCAGAACAUGAGGAUCACCCAUGUGGGUACUCGG [Bingo-Bango-15] (Eterna round: R97, puzzle: Exclusion 6) |  |  |  | 147 |  | 190
31 | GGAGGGCUAGGAUAUGUAACAGGGAACUUGAGGAUCACCCAAGUGGCCGAAGGCACCCUGGCAGAAGGAGUAAAGA [Inmaislari] (Eterna round: R97, puzzle: Exclusion 5) |  |  |  | 71.6 |  | 50.8
32 | CUUAGACAUGAGGAUCACCCAUGUGAGGAUAUGAAAUUAAUUAAUUAUUAAUUAUGAAUCAGAAGGCACAUAUG [Mat - Mod of Hyphema D37] (puzzle: Exclusion 1) | 121 | 47.9 | 50.9 |  |  | 
33 | ACUAGAUGAGGAUAUACACAUUUUAGUGUUCCUCUAGAUUAACAUGAGGAUCACCCAUGUAGAAGGCAUCAUUU [Exclusion 2 - 10] (puzzle: Exclusion 2) |  | 80.8 |  |  |  | 
34 | ACUAAUAGAGGAUAUACAGUUUAUUACAUGAGGAUCACCCAUGUUCUUCAAUGUAUAUAAGUAGAAGGCUAUGGAA [EX-5 Malc#4] (puzzle: Exclusion 5) |  | 56.9 |  |  |  | 
35 | CAGUACUGAGGAUAUACAUGAGGAUCACCCAUGUGAUGUAGUGCACGCGUACGUGUACGUAGAAGGCAGUACUG [JL 3.27 m10] (Eterna round: R97, puzzle: Exclusion 3) |  |  |  | 49.3 |  | 17.1

Reference: the supplement of paper PMC9170038
